In test [1] the target is T1, SARS-CoV-2 spike receptor-binding domain (amino acids 333–529), bacteria-expressed and refolded (SARS-CoV-2, UniProt P0DTC2 333-529). Put plainly: SPR.
Test [2] addresses T1, SARS-CoV-2 spike receptor-binding …. Put plainly: SPR. This is another data set of the same source. For orientation: SPR reads the build-up and loss of mass on a sensor chip optically.

B1: sybody Sb14 (VHH)
VHH: QVQLVESGGGLVQAGGSLRLSCAASGFPVQAREMEWYRQAPGKEREWVAAIKSTGTYTAYAYSVKGRFTISRDNAKNTVYLQMNSLKPEDTAVYYCYVYVGSSYIGQGTQVTVSA
The Kd is a measure of binding affinity in units of concentration. Higher therefore signals a looser complex. In general, koff refers to the first-order rate constant of dissociation. A lower koff goes with a long-lived complex. In the case of B1, binding in test [1] was put at a Kd of 13.8 nM. The same molecule yielded a koff in test [2] of 0.007 s⁻¹.

B2: sybody Sb16 (VHH)
VHH: QVQLVESGGGLVQAGGSLRLSCAASGFPVAYKTMWWYRQAPGKEREWVAAIESYGIKWTRYADSVKGRFTISRDNAKNTVYLQMNSLKPEDTAVYYCIVWVGAQYHGQGTQVTVSA
B2 registered a Kd in test [1] of 40.6 nM. This molecule also had a koff in test [2] of 0.02 s⁻¹.

B3: sybody Sb15 (VHH)
VHH: QVQLVESGGGLVQAGGSLRLSCAASGFPVKNFEMEWYRKAPGKEREWVAAIQSGGVETYYADSVKGRFTISRDNAKNTVYLQMNSLKPEDTAVYYCFVYVGRSYIGQGTQVTVS
Turning to B3, in test [2], the koff stood at 0.011 s⁻¹.

B4: sybody Sb68 (VHH)
VHH: QVQLVESGGGSVQAGGSLRLSCAASGSISSITYLGWFRQAPGKEREGVAALITVNGHTYYADSVKGRFTVSLDNAKNTVYLQMNSLKPEDTALYYCAAAAWGYAWPLHQDDYWYWGQGTQVTVSA
Regarding B4, the koff in test [2] is 0.023 s⁻¹.
